Data taken from US20140274782A1 (Stanford University, published 2014).

Key:
Test in all cases: ProtoArray, GST-treated control array;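 note: human protein microarray (about 9500 recombinant proteins) incubated overnight with GST alone plus SAM cofactor as the negative control for G9a SET domain methylation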
[1] = molecular target: T1, RHBDD1-rhomboid domain containing 1 (RHBDD1) (human, UniProt Q8TEB9 1-315, limits assumed)
T1 sequence (looked up): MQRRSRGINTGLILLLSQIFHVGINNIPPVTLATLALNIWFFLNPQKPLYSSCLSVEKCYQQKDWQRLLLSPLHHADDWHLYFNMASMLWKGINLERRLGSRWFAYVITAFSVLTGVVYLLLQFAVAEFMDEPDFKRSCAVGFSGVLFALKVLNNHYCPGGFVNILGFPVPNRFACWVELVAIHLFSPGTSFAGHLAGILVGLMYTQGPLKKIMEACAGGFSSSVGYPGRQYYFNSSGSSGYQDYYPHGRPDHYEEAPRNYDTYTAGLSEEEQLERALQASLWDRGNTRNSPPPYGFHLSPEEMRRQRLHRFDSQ

[2] = molecular target: T2, GPX1-glutathione peroxidase 1 (GPX1) (human, UniProt P07203 1-203, limits assumed)
T2 sequence (looked up): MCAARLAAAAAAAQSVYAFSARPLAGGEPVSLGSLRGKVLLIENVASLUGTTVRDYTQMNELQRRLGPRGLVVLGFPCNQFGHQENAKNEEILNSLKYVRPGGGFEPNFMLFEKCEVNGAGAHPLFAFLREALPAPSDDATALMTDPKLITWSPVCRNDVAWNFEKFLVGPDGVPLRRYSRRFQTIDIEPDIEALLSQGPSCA

[3] = molecular target: T3, SMAP1-stromal membrane-associated protein 1 (SMAP1) (human, UniProt Q8IYB5 1-467, limits assumed)
T3 sequence (looked up): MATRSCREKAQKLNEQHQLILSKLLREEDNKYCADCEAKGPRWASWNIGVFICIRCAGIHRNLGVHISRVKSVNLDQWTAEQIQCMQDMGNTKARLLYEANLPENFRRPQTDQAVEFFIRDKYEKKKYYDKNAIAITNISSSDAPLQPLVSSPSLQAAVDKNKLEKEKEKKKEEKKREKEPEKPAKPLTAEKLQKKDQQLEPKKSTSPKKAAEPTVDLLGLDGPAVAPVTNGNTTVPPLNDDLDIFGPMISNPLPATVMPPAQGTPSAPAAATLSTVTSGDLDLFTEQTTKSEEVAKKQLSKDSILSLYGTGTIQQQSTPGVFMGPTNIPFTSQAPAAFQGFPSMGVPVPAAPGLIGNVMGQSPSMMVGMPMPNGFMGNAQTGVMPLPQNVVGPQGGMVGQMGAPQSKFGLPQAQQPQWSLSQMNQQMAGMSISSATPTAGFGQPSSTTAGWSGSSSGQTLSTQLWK

[4] = molecular target: T4, CSF3-Granulocyte colony-stimulating factor (human, UniProt P09919 31-207, limits assumed)
T4 sequence (looked up): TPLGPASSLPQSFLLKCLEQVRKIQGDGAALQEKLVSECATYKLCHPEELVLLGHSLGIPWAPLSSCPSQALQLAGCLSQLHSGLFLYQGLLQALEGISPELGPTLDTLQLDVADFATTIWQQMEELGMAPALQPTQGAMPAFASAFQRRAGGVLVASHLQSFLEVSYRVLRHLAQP

[5] = molecular target: KRR1-KRR1, small subunit (SSU) processome component, homolog (yeast) (KRR1) (human, UniProt Q13601 1-381, limits assumed)
[6] = molecular target: T5, SCGB1A1-secretoglobin, family 1A, member 1 (uteroglobin) (SCGB1A1) (human, UniProt P11684 22-91, limits assumed)
T5 sequence (looked up): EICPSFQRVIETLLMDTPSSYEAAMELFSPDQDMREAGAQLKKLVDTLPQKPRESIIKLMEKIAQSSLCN

[7] = molecular target: T6, SMYD5-SMYD family member 5 (SMYD5) (human, UniProt Q6GMV2 1-418)
T6 sequence (looked up): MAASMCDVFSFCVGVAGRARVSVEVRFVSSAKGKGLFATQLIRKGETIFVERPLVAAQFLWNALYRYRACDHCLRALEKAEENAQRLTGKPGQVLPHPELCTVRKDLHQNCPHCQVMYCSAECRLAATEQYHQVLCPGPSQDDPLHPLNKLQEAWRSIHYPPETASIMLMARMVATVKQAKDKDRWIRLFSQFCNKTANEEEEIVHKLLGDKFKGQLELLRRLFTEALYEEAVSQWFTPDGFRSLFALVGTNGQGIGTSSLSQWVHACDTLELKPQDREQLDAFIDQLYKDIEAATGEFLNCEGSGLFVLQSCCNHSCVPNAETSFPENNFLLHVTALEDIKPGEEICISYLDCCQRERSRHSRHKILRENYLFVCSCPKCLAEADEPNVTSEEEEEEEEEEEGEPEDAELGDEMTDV

[8] = molecular target: T7, C12orf60-Uncharacterized protein C12orf60 (human, UniProt Q5U649 1-245)
T7 sequence (looked up): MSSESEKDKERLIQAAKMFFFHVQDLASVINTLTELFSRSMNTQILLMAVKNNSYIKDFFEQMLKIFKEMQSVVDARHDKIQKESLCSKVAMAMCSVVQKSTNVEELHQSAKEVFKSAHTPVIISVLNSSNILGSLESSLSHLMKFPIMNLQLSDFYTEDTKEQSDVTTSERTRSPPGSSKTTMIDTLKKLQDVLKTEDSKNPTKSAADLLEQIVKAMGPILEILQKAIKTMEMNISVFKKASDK

[9] = molecular target: T8, MGC10433-RNA-binding protein 42 (human, UniProt Q9BTD8 1-480, limits assumed)
T8 sequence (looked up): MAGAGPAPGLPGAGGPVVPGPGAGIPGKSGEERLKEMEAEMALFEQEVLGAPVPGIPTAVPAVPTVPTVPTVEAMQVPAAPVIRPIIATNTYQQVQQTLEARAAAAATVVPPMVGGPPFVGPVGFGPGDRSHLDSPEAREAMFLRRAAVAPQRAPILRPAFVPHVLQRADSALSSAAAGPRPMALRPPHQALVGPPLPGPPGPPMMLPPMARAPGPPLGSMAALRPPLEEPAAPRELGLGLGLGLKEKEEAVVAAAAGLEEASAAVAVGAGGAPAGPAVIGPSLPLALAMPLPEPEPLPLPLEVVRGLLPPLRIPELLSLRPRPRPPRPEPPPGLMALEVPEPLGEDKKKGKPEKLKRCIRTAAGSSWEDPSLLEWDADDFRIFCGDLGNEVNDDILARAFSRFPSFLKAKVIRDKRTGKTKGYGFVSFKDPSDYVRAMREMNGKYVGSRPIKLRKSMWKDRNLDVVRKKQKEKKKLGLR

Sequence of KRR1-KRR1, small subunit (SSU) processome component, homolog (yeast) (KRR1) (Q13601 whole entry): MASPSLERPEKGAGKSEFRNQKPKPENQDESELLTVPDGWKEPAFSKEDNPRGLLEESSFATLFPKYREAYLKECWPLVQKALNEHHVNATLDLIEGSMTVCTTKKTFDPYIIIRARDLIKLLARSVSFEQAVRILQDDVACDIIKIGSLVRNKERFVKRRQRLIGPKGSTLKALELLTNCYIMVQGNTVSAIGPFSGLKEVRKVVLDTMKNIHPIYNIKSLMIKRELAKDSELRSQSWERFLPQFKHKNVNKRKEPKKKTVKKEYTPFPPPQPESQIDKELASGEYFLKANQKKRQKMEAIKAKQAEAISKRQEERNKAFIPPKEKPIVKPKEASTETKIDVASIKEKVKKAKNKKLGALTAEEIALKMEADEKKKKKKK

GST Average SNR [1]: -0.11
GST Average SNR [2]: 1.22
GST Average SNR [3]: 1.37
GST Average SNR [4]: 1.27
GST Average SNR [5]: 0.566
GST Average SNR [6]: 1.16
GST Average SNR [7]: 1.16
GST Average SNR [8]: -0.007
GST Average SNR [9]: -0.357
B1: 3× Flag-3×MBT (designed binder)
chain: EEWSSSQPATGEKKECWSWESYLEEQKAITAPVSLFQDSQAVTHNKNGFKLGMKLEGIDPQHPSMYFILTVAEVCGYRLRLHFDGYSECHDFWVNANSPDIHPAGWFEKTGHKLQPPKGYKEEEFSWSQYLRSTRAQAAPKHLFVSQSHSPPPLGFQVGMKLEAVDRMNPSLVCVASVTDVVDSRFLVHFDNWDDTYDYWCDPSSPYIHPVGWCQKQGKPLTPPQDYPDPDNFCWEKYLEETGASAVPTWAFKVRPPHSFLVNMKLEAVDRRNPALIRVASVEDVEDHRIKIHFDGWSHGYDFWIDADHPDIHPAGWCSKTGHPLQPPLGPREPSSASPGG
notes: also called Flag-tagged 3×MBT; 3xFlag-3xMBT; not shown: made by PreScission cleavage of GST-3× Flag-3×MBT
